Data on five substances can be found in patent US20080199443A1.

For data set [1], the target named is Xenopus GDF5 (wild type, full-length open reading frame expressed from injected mRNA) (Xenopus). Briefly: cell-based or functional assay.
Data set [2] deals with Xenopus GDF5 with a T7 epitope tag (GDF5-T7).

Sequence of Xenopus Furin (P29119 whole entry): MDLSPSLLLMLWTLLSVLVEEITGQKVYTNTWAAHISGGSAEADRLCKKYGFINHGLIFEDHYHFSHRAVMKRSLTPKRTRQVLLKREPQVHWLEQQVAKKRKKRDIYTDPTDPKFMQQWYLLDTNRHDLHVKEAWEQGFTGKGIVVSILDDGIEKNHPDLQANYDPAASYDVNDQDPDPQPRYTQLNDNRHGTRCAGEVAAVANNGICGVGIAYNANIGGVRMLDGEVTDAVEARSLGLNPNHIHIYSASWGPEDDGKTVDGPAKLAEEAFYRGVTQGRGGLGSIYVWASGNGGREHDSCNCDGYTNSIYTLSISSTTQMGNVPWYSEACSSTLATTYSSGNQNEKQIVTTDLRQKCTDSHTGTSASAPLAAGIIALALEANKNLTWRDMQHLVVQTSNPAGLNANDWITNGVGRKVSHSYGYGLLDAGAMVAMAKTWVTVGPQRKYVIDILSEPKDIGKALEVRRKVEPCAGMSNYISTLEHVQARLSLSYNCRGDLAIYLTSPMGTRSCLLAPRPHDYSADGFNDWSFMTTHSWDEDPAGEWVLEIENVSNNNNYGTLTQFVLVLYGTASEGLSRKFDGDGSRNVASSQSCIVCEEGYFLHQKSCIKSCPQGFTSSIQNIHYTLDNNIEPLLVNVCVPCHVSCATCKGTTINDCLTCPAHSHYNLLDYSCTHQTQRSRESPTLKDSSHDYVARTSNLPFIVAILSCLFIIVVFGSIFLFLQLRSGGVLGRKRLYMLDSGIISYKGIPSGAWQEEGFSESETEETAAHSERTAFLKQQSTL

In data set [1], Xenopus Furin (enzyme) had an Average DAI (Dorso-Anterior Index), ventralization of Xenopus embryos after co-injection of mRNAs of 4.8 DAI; an Average DAI, ventralization of Xenopus embryos; GDF5 mRNA co-injected with Furin and SPC6 mRNAs together of 2.4 DAI. In turn, Xenopus SPC4 (enzyme) had an Average DAI (Dorso-Anterior Index), ventralization of Xenopus embryos after co-injection of mRNAs in data set [1] of 4.8 DAI. As for Xenopus Furin, the “proteolytic processing to the mature peptide; anti-T7 immunoblot of Xenopus oocyte supernatants” value in data set [2] was “XGDF5 and Vg1 mature peptides could be detected only when mRNAs encoding both Furin and SPC6 were co-injected with the growth factor messages”. The same measure, in the same setting: in the case of Xenopus SPC6A it was “XGDF5 and Vg1 mature peptides could be detected only when mRNAs encoding both Furin and SPC6 were co-injected with the growth factor messages”. Turning to Xenopus SPC6A (enzyme), in data set [1], the Average DAI (Dorso-Anterior Index), ventralization of Xenopus embryos after co-injection of mRNAs turned out to be 4.9 DAI; the Average DAI, ventralization of Xenopus embryos; GDF5 mRNA co-injected with Furin and SPC6 mRNAs together turned out to be 2.4 DAI.
